Measurements published in US20140213772A1 (AbbVie / Abbott, published 2014).

Columns and labels:
[1] = biological target: T1, IL-1B (UniProt P01584 117-269); assay: SPR (Biacore)
[2] = biological target: T2, IL-17 (UniProt Q16552 24-155); assay: SPR (Biacore)
[3] = biological target: T1, IL-1B; assay: cell-based or functional assay
[4] = biological target: T2, IL-17; assay: cell-based or functional assay
[5] = biological target: T3, TNF (UniProt P01375 77-233); assay: ELISA
[6] = biological target: T3, TNF; assay: cell-based or functional assay
[7] = biological target: T2, IL-17; assay: ELISA
[8] = biological target: T2, IL-17; assay: cell-based or functional assay; remark: listed apart in the source

T2 sequence (Q16552 24-155 limits assumed): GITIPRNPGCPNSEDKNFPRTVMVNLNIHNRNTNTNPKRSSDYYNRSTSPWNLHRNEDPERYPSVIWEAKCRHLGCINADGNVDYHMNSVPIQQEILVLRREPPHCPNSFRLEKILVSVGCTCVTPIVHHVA
T3 sequence (P01375 77-233 limits assumed): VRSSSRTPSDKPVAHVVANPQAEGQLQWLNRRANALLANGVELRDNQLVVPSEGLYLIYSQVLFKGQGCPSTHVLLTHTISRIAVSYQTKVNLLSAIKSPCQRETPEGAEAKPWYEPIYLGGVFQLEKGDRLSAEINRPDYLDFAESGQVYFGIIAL

B1: CODH2 (bispecific antibody)
chain 1: EVQLVQSGAEVKKPGESVKISCKASGGSFRSYGISWVRQAPGQGLEWMGGITHFFGITDYAQKFQGRVTITADESTTTAYMELSGLTSDDTAVYYCAREPNDFWGGYYDTHDFDSWGQGTTVTVSSGEVQLQESGPGLVKPSETLSLTCTVSGFSLSDYGVSWIRQPPGKGLEWLGLIWGGGDTYYNSPLKSRLTISKDNSKSQVSLKLSSVTAADTAVYYCAKQRTLWGYDLYGMDYWGQGTLVTVSSGG
chain 2: DTQVTQSPSSLSASVGDRVTITCITSTDIDVDMNWYQQKPGKPPKLLISQGNTLRPGVPSRFSSSGSGTDFTFTISSLQPEDFATYYCLQSDNLPLTFGQGTKLEIKGGGGGGGEIVLTQSPDFQSVTPKEKVTITCRASQNIGSELHWYQQKPDQSPKLLIKYASHSISGVPSRFSGSGSGTDFTLTINGLEAEDAATYYCHQSDTLPHTFGQGTKVDIKGGGGGR
Which Kd [1] does the source give for B1 here?
The Kd was 0.17 nM.

And the Kd [2]?
The Kd was 0.0004 nM.

And the “IL-1B neutralization IC50 (pM)” value [3]?
Its value is 1600 pM.

And the “IL-17 neutralization IC50 (pM)” value [4]?
Its value is 29 pM.

B2: AB270 (antibody, V domains shown)
VH: EVQLQESGPGLVKPSETLSLTCTVSGFSLSDYGVSWIRQPPGKGLEWLGLIWGGGDTYYNSPLKSRLTISKDNSKSQVSLKLSSVTAADTAVYYCAKQRTLWGYDLYGMDYWGQGTLVTVSS
VL: DTQVTQSPSSLSASVGDRVTITCITSTDIDVDMNWYQQKPGKPPKLLISQGNTLRPGVPSRFSSSGSGTDFTFTISSLQPEDFATYYCLQSDNLPLTFGQGTKLEIK
notes: Benchmark anti-IL-1B mAb; also called 1B12.1; 1B12-1
B2 was tested. Which Kd [1] did it give?
Its Kd is 0.089 nM.

And the “IL-1B neutralization IC50 (pM)” value [3]?
The value was 245 pM.

B3: CODH12 (bispecific antibody)
chain 1: EVQLVESGGGVVQPGRSLRLSCSASGFIFSRYDMSWVRQAPGKGLEWVAYISHGGAGTYYPDSVKGRFTISRDNSKNTLFLQMDSLRPEDTGVYFCARGGVTKGYFDVWGQGTPVTVSSGGGGSGGGEIVLTQSPDFQSVTPKEKVTITCRASQNIGSELHWYQQKPDQSPKLLIKYASHSISGVPSRFSGSGSGTDFTLTINGLEAEDAATYYCHQSDTLPHTFGQGTKVDIKGGSGG
chain 2: EVQLVQSGAEVKKPGESVKISCKASGGSFRSYGISWVRQAPGQGLEWMGGITHFFGITDYAQKFQGRVTITADESTTTAYMELSGLTSDDTAVYYCAREPNDFWGGYYDTHDFDSWGQGTTVTVSSGGGGSGGGDIQMTQSPSSLSASVGDRVTITCRASGNIHNYLTWYQQTPGKAPKLLIYNAKTLADGVPSRFSGSGSGTDYTFTISSLQPEDIATYYCQHFWSIPYTFGQGTKLQITGGGR
B3 was tested. Which Kd [1] did it give?
Its Kd is 800 nM.

What about the “IL-1B neutralization IC50 (pM)” value [3] of the same binder?
The value was 2040 pM.

What about the “IL-17 neutralization IC50 (pM)” value [4] of the same binder?
The value was 220 pM.

B4: CODH3 (bispecific antibody)
chain 1: EVQLVESGGGVVQPGRSLRLSCSASGFIFSRYDMSWVRQAPGKGLEWVAYISHGGAGTYYPDSVKGRFTISRDNSKNTLFLQMDSLRPEDTGVYFCARGGVTKGYFDVWGQGTPVTVSSGEVQLVQSGAEVKKPGESVKISCKASGGSFRSYGISWVRQAPGQGLEWMGGITHFFGITDYAQKFQGRVTITADESTTTAYMELSGLTSDDTAVYYCAREPNDFWGGYYDTHDFDSWGQGTTVTVSSGG
chain 2: EIVLTQSPDFQSVTPKEKVTITCRASQNIGSELHWYQQKPDQSPKLLIKYASHSISGVPSRFSGSGSGTDFTLTINGLEAEDAATYYCHQSDTLPHTFGQGTKVDIKGGGGGGGDIQMTQSPSSLSASVGDRVTITCRASGNIHNYLTWYQQTPGKAPKLLIYNAKTLADGVPSRFSGSGSGTDYTFTISSLQPEDIATYYCQHFWSIPYTFGQGTKLQITGGGGGR
Which Kd [1] does the source give for B4 here?
The Kd was 0.13 nM.

And the Kd [2]?
The Kd was less than 0.0002 nM.

What about the “IL-1B neutralization IC50 (pM)” value [3] of the same binder?
The value was 1160 pM.

And the “IL-17 neutralization IC50 (pM)” value [4]?
The value was 12 pM.

B5: CODH1 (bispecific antibody)
chain 1: EVQLQESGPGLVKPSETLSLTCTVSGFSLSDYGVSWIRQPPGKGLEWLGLIWGGGDTYYNSPLKSRLTISKDNSKSQVSLKLSSVTAADTAVYYCAKQRTLWGYDLYGMDYWGQGTLVTVSSGEVQLVQSGAEVKKPGESVKISCKASGGSFRSYGISWVRQAPGQGLEWMGGITHFFGITDYAQKFQGRVTITADESTTTAYMELSGLTSDDTAVYYCAREPNDFWGGYYDTHDFDSWGQGTTVTVSSGG
chain 2: EIVLTQSPDFQSVTPKEKVTITCRASQNIGSELHWYQQKPDQSPKLLIKYASHSISGVPSRFSGSGSGTDFTLTINGLEAEDAATYYCHQSDTLPHTFGQGTKVDIKGGGGGGGDTQVTQSPSSLSASVGDRVTITCITSTDIDVDMNWYQQKPGKPPKLLISQGNTLRPGVPSRFSSSGSGTDFTFTISSLQPEDFATYYCLQSDNLPLTFGQGTKLEIKGGGGGR
With B5 as the binder, how does the Kd [1] read?
The Kd was 0.19 nM.

What about the Kd [2] of the same binder?
Its Kd is less than 0.0001 nM.

What about the “IL-1B neutralization IC50 (pM)” value [3] of the same binder?
The value was 1300 pM.

What about the “IL-17 neutralization IC50 (pM)” value [4] of the same binder?
Its value is 30 pM.

B6: AB461 (antibody, V domains shown)
VH: EVQLVQSGAEVKKPGESVKISCKASGGSFRSYGISWVRQAPGQGLEWMGGITHFFGITDYAQKFQGRVTITADESTTTAYMELSGLTSDDTAVYYCAREPNDFWGGYYDTHDFDSWGQGTTVTVSS
VL: EIVLTQSPDFQSVTPKEKVTITCRASQNIGSELHWYQQKPDQSPKLLIKYASHSISGVPSRFSGSGSGTDFTLTINGLEAEDAATYYCHQSDTLPHTFGQGTKVDIK
notes: Benchmark anti-IL-17 mAb; also called B6-5G
For B6, which Kd [2] is on record?
Its Kd is 0.0009 nM.

What about the “IL-17 neutralization IC50 (pM)” value [4] of the same binder?
Its value is 2 pM.

B7: CODH4 (bispecific antibody)
chain 1: EVQLVQSGAEVKKPGESVKISCKASGGSFRSYGISWVRQAPGQGLEWMGGITHFFGITDYAQKFQGRVTITADESTTTAYMELSGLTSDDTAVYYCAREPNDFWGGYYDTHDFDSWGQGTTVTVSSGEVQLVESGGGVVQPGRSLRLSCSASGFIFSRYDMSWVRQAPGKGLEWVAYISHGGAGTYYPDSVKGRFTISRDNSKNTLFLQMDSLRPEDTGVYFCARGGVTKGYFDVWGQGTPVTVSSGG
chain 2: DIQMTQSPSSLSASVGDRVTITCRASGNIHNYLTWYQQTPGKAPKLLIYNAKTLADGVPSRFSGSGSGTDYTFTISSLQPEDIATYYCQHFWSIPYTFGQGTKLQITGGGGGGGEIVLTQSPDFQSVTPKEKVTITCRASQNIGSELHWYQQKPDQSPKLLIKYASHSISGVPSRFSGSGSGTDFTLTINGLEAEDAATYYCHQSDTLPHTFGQGTKVDIKGGGGGR
For B7, which Kd [1] is on record?
Its Kd is 0.11 nM.

And the “IL-1B neutralization IC50 (pM)” value [3]?
The value was 113 pM.

And the “IL-17 neutralization IC50 (pM)” value [4]?
The value was 4 pM.

B8: AB441 (antibody, V domains shown)
VH: EVQLVQSGAEVKKPGASVKVSCKASGYTFANYGIIWVRQAPGQGLEWMGWINTYTGKPTYAQKFQGRVTMTTDTSTSTAYMELSSLRSEDTAVYYCARKLFTTMDVTDNAMDYWGQGTTVTVSS
VL: DIQMTQSPSSLSASVGDRVTITCRASQDISQYLNWYQQKPGKAPKLLIYYTSRLQSGVPSRFSGSGSGTDFTLTISSLQPEDFATYFCQQGNTWPPTFGQGTKLEIKR
B8 was tested. Which EC50 [5] did it give?
Its EC50 is 0.398 nM.

What about the “Neutralization IC50 (pM), TNF” value [6] of the same binder?
The value was 6 pM.

B9: AB274 (antibody, V domains shown)
VH: EVQLVQSGAEVKKPGSSVKVSCKASGGSFGGYGIGWVRQAPGQGLEWMGGITPFFGFADYAQKFQGRVTITADESTTTAYMELSGLTSDDTAVYYCARDPNEFWNGYYSTHDFDSWGQGTTVTVSS
VL: EIVLTQSPDFQSVTPKEKVTITCRASQDIGSELHWYQQKPDQPPKLLIKYASHSTSGVPSRFSGSGSGTDFTLTINGLEAEDAGTYYCHQTDSLPYTFGPGTKVDIKR
B9 was tested. Which EC50 [7] did it give?
Its EC50 is 0.203 nM.

What about the “Neutralization IC50 (pM), IL-17” value [8] of the same binder?
The value was 10 pM.

B10: CODH15 (bispecific antibody)
chain 1: EIVLTQSPDFQSVTPKEKVTITCRASQNIGSELHWYQQKPDQSPKLLIKYASHSISGVPSRFSGSGSGTDFTLTINGLEAEDAATYYCHQSDTLPHTFGQGTKVDIKGGGGGGGDIQMTQSPSSLSASVGDRVTITCRASGNIHNYLTWYQQTPGKAPKLLIYNAKTLADGVPSRFSGSGSGTDYTFTISSLQPEDIATYYCQHFWSIPYTFGQGTKLQITGGGGG
chain 2: EVQLVESGGGVVQPGRSLRLSCSASGFIFSRYDMSWVRQAPGKGLEWVAYISHGGAGTYYPDSVKGRFTISRDNSKNTLFLQMDSLRPEDTGVYFCARGGVTKGYFDVWGQGTPVTVSSGEVQLVQSGAEVKKPGESVKISCKASGGSFRSYGISWVRQAPGQGLEWMGGITHFFGITDYAQKFQGRVTITADESTTTAYMELSGLTSDDTAVYYCAREPNDFWGGYYDTHDFDSWGQGTTVTVSSGGR
Which results are given for B10?
Kd [1]: 390 nM; IL-1B neutralization IC50 (pM) [3]: 1660 pM; IL-17 neutralization IC50 (pM) [4]: 7.4 pM
